Reference: patent US20150086562A1 (BIOATLA, published 2015)
Numbering of substitutions follows the chain as printed.

B1: VM1000 (antibody, V domains shown)
VH: QVQLVQSGAEVKKPGASVKVSCKASGYVFTSYWLHWIRQSPSRGLEWLGYINPRNDYTEYNRIFKGRLTISKDTSKNQVVLTMTNMDPVDTATYYCARRGITTFYWGQG
VL: EIVLTQSPATLSLSPGERATLSCKSSQSVLYSAVEKNYLAWYQQKPGKAPKLLIYWASTRERGVPSRFSGSGSGTDFTFTISSLQPEDIATYYCKQYLSSWTFGQG
notes: Humanized antibody with human constant region; also called anti-CD22 Mab clone VM1000
B2: VM1011 (antibody, V domains shown)
VH: QVQLQESGPGLVKPSQTLSLTCTVSGYVFTSYWLHWIRQPPGKGLEWIGYINPRNDYTEYNRIFKGRVTITADKSTSTAYMELSSLRSEDTAVYYCARRGITTFYWGQG
VL: B1 VL with K48Q, K51R, V64I, S66D, F79L, S83R, Q85E, I89F, T91V
notes: Humanized antibody with human constant region; also called anti-CD22 Mab clone VM1011
B3: VM1004 (antibody, V domains shown)
VH: EVQLVQSGAEVKKPGATVKISCKVSGYVFTSYWLHWIRQSPSRGLEWLGYINPRNDYTEYNRIFKGRFVFSLDTSVSTAYLQICSLKAEDTAVYYCARRGITTFYWGQG
VL: B1 VL with V64I, S66D, F79L, S83R, Q85E, I89F, T91V
notes: Humanized antibody with human constant region; also called anti-CD22 Mab clone VM1004
B4: VM1002 (antibody, V domains shown)
VH: EVQLVQSGAEVKKPGESLRISCKGSGYVFTSYWLHWVRQAPGQGLEWMGYINPRNDYTEYNRIFKGRVTITADKSTSTAYMELSSLRSEDTAVYYCARRGITTFYWGQG
VL: B1 VL with K48Q, K51R, V64I, S66D, F79L, S83R, Q85E, I89F, T91V
notes: Humanized antibody with human constant region; also called anti-CD22 Mab clone VM1002
B5: VM1001 (antibody, V domains shown)
VH: B1 VH
VL: B1 VL with K48Q, K51R, V64I, S66D, F79L, S83R, Q85E, I89F, T91V
notes: Humanized antibody with human constant region; also called anti-CD22 Mab clone VM1001
B6: VM1003 (antibody, V domains shown)
VH: B3 VH
VL: B1 VL with K48Q, K51R, V64I, S66D, F79L, S83R, Q85E, I89F, T91V
notes: Humanized antibody with human constant region; also called anti-CD22 Mab clone VM1003
B7: VM1006 (antibody, V domains shown)
VH: B3 VH with E1Q, T17S, I20V, V24A
VL: DIQMTQSPSSLSASVGDRVTITCKSSQSVLYSAVEKNYLAWYQQKPGKAPKLLIYWASTRERGIPDRFSGSGSGTDFTLTISRLEPEDFAVYYCKQYLSSWTFGQG
notes: Humanized antibody with human constant region; also called anti-CD22 Mab clone VM1006
B8: VM1007 (antibody, V domains shown)
VH: B4 VH with E1Q, E16A, L18V, R19K, I20V, G24A, P41R, G44R, M48I
VL: B7 VL with D1A, M4L, I64V, D66S, L79F, R83S, P86A, F89A, V91T
notes: Humanized antibody with human constant region; also called anti-CD22 Mab clone VM1007

biological target: T1, recombinant CD22 extracellular domain; assay: ELISA on plates coated with recombinant CD22 extracellular domain (coating 2, 0.2, 0.02 or 0.002 ug/ml per paragraph 227; the sheet does not say which), anti-human IgG-HRP, read at 450 nm
T1 construct: Kept apart from m18, which is cell-surface CD22; also called CD22 (analyte in the BIAcore runs); CD22 ECD
Description: Nunc-Immuno MaxiSorp 96 well plates were coated with 100 μl of 2 μg/ml, 0.2 μg/ml, 0.02 μg/ml or 0.002 μg/ml recombinant CD22 extracellular domain (PeproTech, Inc. catalog number 100-01 in coating solution (sodium bicarbonate in PBS). The plates were covered with plate sealer and incubated at 4° C. overnight. Plates were emptied and the residual liquid tapped out on paper towels. 200 μl washing solution (0.05% Tween-20 in PBS) was added and shaken at 200 RPM for 5 min at room temperature. The plates were emptied and residual liquid tapped out on paper towels. 200 μl blocking solution (2% Carnation milk in PBS) was added and shaken at 200 RPM for one hour at room temperature. Plates were emptied and residual liquid tapped out on paper towels. 100 μl of diluted samples containing VM1000, VM1001, VM1002, VM1003, VM1004, VM1005, VM1006, VM1007, VM1008, VM1009, VM1010, VM1011, VM1012, VM1013, VM1014, and VM1015 antibodies for ELISA were used. The samples were shaken at 200 RPM for one hour at room temperature; plates emptied and residual liquid tapped out on paper towels. 200 μl washing solution (0.05% Tween-20 in PBS) was added, shaken at 200 RPM for 5 min at room temperature; plates emptied and residual liquid tapped out on paper towels. This process was repeated three times. 100 μl of 1:2500 dilution of anti-human IgG conjugated with HRP diluted in block solution (2% Carnation milk in PBS) was added for all samples. 100 μl of 1:2500 dilution of anti-rabbit IgG conjugated with HRP diluted in block solution (2% Carnation milk in PBS) was added for control antibody. The contents were shaken at 200 RPM for one hour at room temperature, plates emptied and residue liquid tapped out on paper towels. 200 μl washing solution (0.05% Tween-20 in PBS) was added, shaken at 200 RPM for 5 min at room temperature; plates emptied and residual liquid tapped out on paper towels. This process was repeated three times. 100 μl TMB substrate solution was added, and incubated at room temperature. The reaction was stopped with 1 N HCl, and the plate read at 450 nm to determine relative binding affinity (FIG. 17).

T1 sequence (chain, as listed by the source limits assumed): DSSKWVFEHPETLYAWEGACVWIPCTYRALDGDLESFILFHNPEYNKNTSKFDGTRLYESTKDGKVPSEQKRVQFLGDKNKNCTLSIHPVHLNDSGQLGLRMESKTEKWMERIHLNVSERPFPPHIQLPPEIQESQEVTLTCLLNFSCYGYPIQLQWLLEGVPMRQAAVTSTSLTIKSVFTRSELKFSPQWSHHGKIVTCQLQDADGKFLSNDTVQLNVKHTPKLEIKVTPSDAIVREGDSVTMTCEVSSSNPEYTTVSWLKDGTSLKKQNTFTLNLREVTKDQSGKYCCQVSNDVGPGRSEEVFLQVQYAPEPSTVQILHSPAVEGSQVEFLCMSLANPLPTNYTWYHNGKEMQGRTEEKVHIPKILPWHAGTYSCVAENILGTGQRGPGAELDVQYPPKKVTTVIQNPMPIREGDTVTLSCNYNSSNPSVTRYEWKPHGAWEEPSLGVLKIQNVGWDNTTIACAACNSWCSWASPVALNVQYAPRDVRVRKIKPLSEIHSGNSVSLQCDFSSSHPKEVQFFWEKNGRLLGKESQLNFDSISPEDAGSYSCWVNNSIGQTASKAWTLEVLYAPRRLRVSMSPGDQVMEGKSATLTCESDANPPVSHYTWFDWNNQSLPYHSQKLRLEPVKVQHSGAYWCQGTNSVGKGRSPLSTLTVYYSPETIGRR

Row | ELISA OD 450 | Binder
1 | 0.517 | B1
2 | 0.15 | B2
3 | 0.444 | B3
4 | 0.495 | B4
5 | 0.386 | B5
6 | 0.56 | B6
7 | 0.638 | B7
8 | 0.538 | B8

biological target: T1, recombinant CD22 extracellular domain; assay: The sheet does not state the method. The column 'KD (nM)' stands beside the confocal data. The values largely repeat FIGURE 18 (SPR on recombinant CD22 extracellular domain), so the target form is taken from there.
Description: BIAcore 3000, GE Healthcare was used to determine binding curves and kinetic parameters. An anti-human Fc (1.8 mg/ml) was diluted to a concentration of 50 ug/ml in NaOAc buffer (10 mM, pH 4.8) and coupled to the carboxymethylated dextran matrix of a CM-5 sensor chip using the manufacturer's amine-coupling chemistry as described in the BIAcore systems manual. Using the surface preparation wizard aiming for 10000RU, the carboxyl groups on the sensor surfaces were first activated with NHS/EDC followed by the addition of the anti-human Fc. The remaining activated groups were blocked by the injection of 1M ethanolamine. Each of the flow cells was coupled individually. Employing these conditions, the four flow cell surfaces containing 7554-9571 RU of anti-human Fc were prepared. In preliminary experiments, it was determine that three injections (15 ul at 30 ul/min) 100 mM H₃PO₄/0.05% CHAPS would efficiently remove the bound immunoglobulin and preserve the binding capacity of the immobilized anti-human Fc.
Experiments were performed on the BIAcore 3000 at 25° C. and a flow rate of 30 ul/min. The antibody candidate was dissolved in HBS (10 mM HEPES with 0.15M NaCl, 3.4 mM EDTA, and 0.05% surfactant P20 at pH 7.4) at 5 ug/ml. The analyte, CD22, was dissolved in HBS at 0.25, 0.125, 0.062, 0.031 and 0.015 ug/ml. 3*30 ul of 5 ug/ml of antibody BA001 was flowed over its respective flow cell followed by injections of 240 ul of each CD22 concentration at 30 ul/min (association phase) and an uninterrupted 1200 seconds of buffer flow (dissociation phase). The surface of the chip was regenerated by three sequential injections of 15 ul each with 100 m M H₃PO₄/0.05% CHAPS. The injections of HBS serve as a reference (blank sensogram) for the subtraction of bulk refractive indices for analysis. Using the 1:1 model in BIAevaluation 4.1, both a local fit and global fit was done for both dissociation (kd, [s−1] and association (ka, [M⁻¹s⁻¹]) and the dissociation constant (KD, [M]) calculated (kd/ka).

Row | Kd [nM] | Binder
9 | 0.5 | B1
10 | 0.8 | B3
11 | 0.33 | B4
12 | 0.22 | B5
13 | 0.34 | B6
14 | 1 | B8
